Data taken from the supplement of paper PMC7877785.
± gives the uncertainty stated by the source.

Assay: self-splicing fitness, log relative to wild type (ln ratio); higher = more splicing; Tetrahymena group I intron in knt gene, E. coli kanamycin selection, DiMSum; sequences stand for … in CUCUCU…GGAGGGAAAAGUUAUCAGGCAUGCACCUGGUAGCUAGUCUUUAAACCAAUAGAUUGCAUCGGUUUAAAAGGCAAGACCGUCAAAUUGCGGGAAAGGGGUCAACAGCCGUUCAGUACCAAGUCUCAGGGGAAACUUUGAGAUGGCCUUGCAAAGGGUAUGGUAAUAAGCUGACGGACAUGGUCCUAACCACGCAGCCAAGUCCUAAGUCAACAGAUCUUCUGUUGAUAUGGAUGCAGUUCACAGACUAAAUGUCGGUCGGGGAAGAUGUAUUCUUCUCAUAAGAUAUAGUCGGACCUCUCCUUAAUGGGAGCUAGCGGAUGAAGUGAUGCAACACUGGAGCCGCUGGGAACUAAUUUGUAUGCGAAAGUAUAUUGAUUAGUUUUGGAGUACUCGUGGUCG
How it was run: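 Library with all eight P1ex-region intron nucleotides randomised, intron inside the knt kanamycin-resistance gene on pET-22b(+), in E. coli BL21(DE3). Cells grew overnight at 37°C or 30°C on LB agar with or without 25 μg/mL kanamycin (plus 100 μg/mL carbenicillin, 50 μM IPTG, 0.2% rhamnose), in six replicate transformations. Pooled colonies were amplicon-sequenced on Illumina HiSeq 2500. DiMSum fitness is the error-weighted combination of wild-type-normalised replicate fold changes, kanamycin versus none.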

Sequence	self-splicing fitness (ln) (30 °C)	self-splicing fitness (ln) (37 °C)
AAGUAGCAAUAUUACGCUAA	-1.81 ± 0.14	-0.343 ± 0.15
GGUUAGCAAUAUUACGCUUU	-2.01 ± 0.13	0.0831 ± 0.14
AGGUAGCAAUAUUACGUGUU	-2.894 ± 0.016	-1.6 ± 0.034
AUUGAGCAAUAUUACGGGAG	-3.67 ± 0.26	-2.33 ± 0.27
CGAAAGCAAUAUUACGGUGG	-0.576 ± 0.046	0.0831 ± 0.066
CUGCAGCAAUAUUACGGAGU	-3.05 ± 0.14	-1.65 ± 0.13
CUAUAGCAAUAUUACGGCUA	-2.95 ± 0.28	-3.42 ± 0.47
ACCCAGCAAUAUUACGCAUG	-4.1 ± 0.15	-2.58 ± 0.15
UACGAGCAAUAUUACGACAA	-2.15 ± 0.47	-1.2 ± 0.31
GUCUAGCAAUAUUACGAAUC	-1.33 ± 0.19	1.43 ± 0.2
GCUCAGCAAUAUUACGGUUA	-0.772 ± 0.12	-0.237 ± 0.11
GACCAGCAAUAUUACGUGGU	-2.67 ± 0.095	-3.29 ± 0.15
UGUAAGCAAUAUUACGGUAU	–	-1.68 ± 0.21
GGCUAGCAAUAUUACGCCGG	-2.34 ± 0.21	-2.27 ± 0.35
GUAAAGCAAUAUUACGAAAU	-0.837 ± 0.078	-0.128 ± 0.1
GAAGAGCAAUAUUACGUGCG	-2.87 ± 0.15	-2.03 ± 0.17
GGUCAGCAAUAUUACGCACA	-0.667 ± 0.082	0.412 ± 0.12
AGACAGCAAUAUUACGUUGA	-3.58 ± 0.16	-1.77 ± 0.11
UUAUAGCAAUAUUACGUAUA	-2.29 ± 0.15	-1.42 ± 0.13
UUACAGCAAUAUUACGAUCU	-1.88 ± 0.063	-1.02 ± 0.079
CCGUAGCAAUAUUACGACAC	-1.82 ± 0.22	–
GAAUAGCAAUAUUACGAACA	-0.419 ± 0.13	-0.622 ± 0.11
GUGUAGCAAUAUUACGCCUU	-2.63 ± 0.39	-2.56 ± 0.37
CCGGAGCAAUAUUACGGUGG	-3.8 ± 0.37	-2.61 ± 0.36
GUACAGCAAUAUUACGGUCA	-0.796 ± 0.068	-0.618 ± 0.082

Sequence	self-splicing fitness (ln) (30 °C)	self-splicing fitness (ln) (37 °C)
CGUGAGCAAUAUUACGUAAA	–	-2.03 ± 0.33
UCUGAGCAAUAUUACGGGGG	-3.29 ± 0.36	-2.49 ± 0.25
AUGAAGCAAUAUUACGUUAC	-1.96 ± 0.13	-2.38 ± 0.24
GUUAAGCAAUAUUACGAAAA	-1.13 ± 0.27	-2.1 ± 0.24
GGUUAGCAAUAUUACGGGUA	-1.11 ± 0.22	-1.39 ± 0.19
AUAUAGCAAUAUUACGUUGU	-3.79 ± 0.29	–
CCUCAGCAAUAUUACGCAUA	-2.47 ± 0.17	-2.19 ± 0.17
GUCCAGCAAUAUUACGGCCU	-3.36 ± 0.2	-1.14 ± 0.13
CUGUAGCAAUAUUACGAGGC	-3.31 ± 0.37	-3.04 ± 0.32
CCAUAGCAAUAUUACGCGAC	-3.56 ± 0.13	-2.9 ± 0.18
ACGAAGCAAUAUUACGGGGC	-3.36 ± 0.14	-2.76 ± 0.16
UCAUAGCAAUAUUACGCUGC	-3.13 ± 0.31	-2.52 ± 0.41
CCUGAGCAAUAUUACGGGAC	-4.19 ± 0.46	-2.08 ± 0.27
GCGCAGCAAUAUUACGAUUC	-0.291 ± 0.09	0.1 ± 0.1
AUACAGCAAUAUUACGGGAA	-2.72 ± 0.17	-1.51 ± 0.13
GUGUAGCAAUAUUACGGGAG	-3.55 ± 0.2	-2.88 ± 0.18
GGCUAGCAAUAUUACGGGUC	-2.91 ± 0.28	-2.26 ± 0.24
ACCCAGCAAUAUUACGAUGA	-1.43 ± 0.09	-0.256 ± 0.088
GUUGAGCAAUAUUACGGCAC	-0.787 ± 0.17	-0.486 ± 0.2
AGCGAGCAAUAUUACGUAAG	–	-1.76 ± 0.37
AAGGAGCAAUAUUACGGUUU	-2.45 ± 0.12	-1.07 ± 0.11
AAAUAGCAAUAUUACGCGCU	-0.381 ± 0.15	-0.606 ± 0.19
GACGAGCAAUAUUACGCUAG	-3.19 ± 0.19	-2.47 ± 0.18
CUGUAGCAAUAUUACGUGCA	-2.56 ± 0.18	-2.5 ± 0.16
UGUUAGCAAUAUUACGCUAG	-1.94 ± 0.5	-1.4 ± 0.47

Sequence	self-splicing fitness (ln) (30 °C)	self-splicing fitness (ln) (37 °C)
CCGUAGCAAUAUUACGGUGU	-3.66 ± 0.17	-1.85 ± 0.11
AACUAGCAAUAUUACGGCAA	-1.01 ± 0.076	-0.905 ± 0.09
CAAUAGCAAUAUUACGAGAU	-2.72 ± 0.12	-2.82 ± 0.17
ACAUAGCAAUAUUACGAACC	-1.16 ± 0.13	-1.13 ± 0.2
UGUCAGCAAUAUUACGCAGC	-3.7 ± 0.32	-0.622 ± 0.24
CUGAAGCAAUAUUACGUGUU	-3.7 ± 0.14	-2.13 ± 0.17
UCCCAGCAAUAUUACGUCCC	-3.08 ± 0.25	-0.845 ± 0.26
AAGGAGCAAUAUUACGGCUG	-2.21 ± 0.23	-1.37 ± 0.27
UGAGAGCAAUAUUACGGGAG	-3.96 ± 0.29	-1.93 ± 0.21
AGGCAGCAAUAUUACGUCUA	-0.469 ± 0.081	0.262 ± 0.091
GGGAAGCAAUAUUACGCAUA	-2.35 ± 0.18	-1.25 ± 0.14
GCUUAGCAAUAUUACGAGGC	–	-1.93 ± 0.41
CGUAAGCAAUAUUACGGUUU	-3.8 ± 0.2	-2.71 ± 0.17
CCUGAGCAAUAUUACGUCAG	-2.64 ± 0.099	-2.19 ± 0.099
CACCAGCAAUAUUACGGAUC	-1.96 ± 0.08	-1.32 ± 0.094
GACAAGCAAUAUUACGAUAC	-1.73 ± 0.094	-1.28 ± 0.11
CUACAGCAAUAUUACGGAAC	-4.6 ± 0.34	-3.47 ± 0.35
GUGCAGCAAUAUUACGGUCU	-0.887 ± 0.081	0.217 ± 0.093
ACCAAGCAAUAUUACGUGUG	-2.06 ± 0.048	-1.1 ± 0.064
CUCCAGCAAUAUUACGUGAU	-2.1 ± 0.078	-1.59 ± 0.1
CGUAAGCAAUAUUACGACGA	-1.28 ± 0.21	-1.69 ± 0.24
UACUAGCAAUAUUACGGGGC	-3.02 ± 0.3	-2.5 ± 0.44
AUCUAGCAAUAUUACGGUCA	-1.31 ± 0.15	-0.841 ± 0.14
AAGUAGCAAUAUUACGUCCA	-0.464 ± 0.18	-0.521 ± 0.17
GCUUAGCAAUAUUACGGGGU	-2.56 ± 0.16	-2.55 ± 0.21

Sequence	self-splicing fitness (ln) (30 °C)	self-splicing fitness (ln) (37 °C)
UCGUAGCAAUAUUACGUCUG	-0.251 ± 0.091	-0.589 ± 0.12
CUGUAGCAAUAUUACGGCCC	–	-0.731 ± 0.38
CAAAAGCAAUAUUACGACAC	-3.37 ± 0.19	-1.01 ± 0.15
GCUUAGCAAUAUUACGAAAU	-0.692 ± 0.076	-0.498 ± 0.095
CAGAAGCAAUAUUACGGGAG	-1.6 ± 0.12	-0.856 ± 0.12
ACCUAGCAAUAUUACGAGAG	-2.34 ± 0.13	-0.462 ± 0.08
UCCUAGCAAUAUUACGCCCG	–	-2.38 ± 0.42
AACUAGCAAUAUUACGAGCA	-1.68 ± 0.12	-0.209 ± 0.11
UACUAGCAAUAUUACGAGUA	-2.36 ± 0.18	-1.77 ± 0.19
UUUGAGCAAUAUUACGGUGG	-2.98 ± 0.31	–
UUGUAGCAAUAUUACGCCUA	-0.297 ± 0.12	0.0606 ± 0.13
UAGUAGCAAUAUUACGAACG	-0.961 ± 0.13	-0.0932 ± 0.15
UGGGAGCAAUAUUACGGGCG	-2.4 ± 0.27	-0.751 ± 0.26
UCUGAGCAAUAUUACGCACU	-4.18 ± 0.39	-2.1 ± 0.28
CGUGAGCAAUAUUACGUACG	–	-0.531 ± 0.23
GCCAAGCAAUAUUACGUCAG	-3.6 ± 0.23	-2.73 ± 0.28
UCACAGCAAUAUUACGCGUU	-4 ± 0.21	-2.13 ± 0.17
GGCUAGCAAUAUUACGAAGU	-2.13 ± 0.26	-1.56 ± 0.44
GUUCAGCAAUAUUACGGUCG	-0.812 ± 0.099	-0.788 ± 0.15
CUGCAGCAAUAUUACGUCAG	-3.61 ± 0.28	-2.08 ± 0.21
AAUCAGCAAUAUUACGAUAA	-0.0103 ± 0.084	-0.0641 ± 0.1
UGGCAGCAAUAUUACGAUAA	-0.124 ± 0.1	0.0812 ± 0.1
UCUUAGCAAUAUUACGCUAA	-2.71 ± 0.35	–
